Consider ten molecules from patent publication US20030088075A1 (Kyowa Kirin, published 2003).

Experiment [1] concerns the target T1, soluble human VEGF receptor KDR 7N (human, UniProt P35968 20-757).
T1 construct: range 20-757; Purity 70 to 80%; not shown: two amino acid residues derived from a linker
Put plainly: ELISA, antigen coated at 4 µg/ml. Here is the method: First, the reactivity of anti-human VEGF receptor Fit-i mouse monoclonal antibodies KM1732 and KM1750 and anti-human VEGF receptor Flt-1 human chimeric antibodies KM2532 and KM2550 was compared using an immunoassay method. Each of Flt-1 7N, Flt-1 3N, Flt-1 2N, Flt-1 7N.K2 and KDR 7N diluted to 4 μg/ml with PBS was dispensed in 50 μl portions into wells of a 96 well plate for EIA (manufactured by Greiner) and allowed to stand overnight at 4° C. for its adsorption. After washing the plate with PBS, 100 μl of 1% BSA-PBS was added to each well, and the remaining active groups was blocked by carrying out the reaction at room temperature for 1 hour. After discarding 1% BSA-PBS, each of the purified anti-human VEGF receptor Flt-1 mouse monoclonal antibodies KM1732 and KM1750 or purified anti-human VEGF receptor Flt-1 human chimeric antibodies KM2532 and KM2550, having a concentration of from 0.1 μg/ml, was dispensed in 50 μl portions into the resulting wells to carry out the reaction at room temperature for 1 hour.

The target in experiment [2] is T2, soluble human VEGF receptor Flt-1 7N (human, UniProt P17948 27-750).
T2 construct: range 1-750; Secreted from baculovirus-infected High Five insect cells and purified on heparin-Sepharose; also called Flt 7N; soluble human Flt-1 7N
T2 sequence (P17948 27-750 limits assumed, form in doubt): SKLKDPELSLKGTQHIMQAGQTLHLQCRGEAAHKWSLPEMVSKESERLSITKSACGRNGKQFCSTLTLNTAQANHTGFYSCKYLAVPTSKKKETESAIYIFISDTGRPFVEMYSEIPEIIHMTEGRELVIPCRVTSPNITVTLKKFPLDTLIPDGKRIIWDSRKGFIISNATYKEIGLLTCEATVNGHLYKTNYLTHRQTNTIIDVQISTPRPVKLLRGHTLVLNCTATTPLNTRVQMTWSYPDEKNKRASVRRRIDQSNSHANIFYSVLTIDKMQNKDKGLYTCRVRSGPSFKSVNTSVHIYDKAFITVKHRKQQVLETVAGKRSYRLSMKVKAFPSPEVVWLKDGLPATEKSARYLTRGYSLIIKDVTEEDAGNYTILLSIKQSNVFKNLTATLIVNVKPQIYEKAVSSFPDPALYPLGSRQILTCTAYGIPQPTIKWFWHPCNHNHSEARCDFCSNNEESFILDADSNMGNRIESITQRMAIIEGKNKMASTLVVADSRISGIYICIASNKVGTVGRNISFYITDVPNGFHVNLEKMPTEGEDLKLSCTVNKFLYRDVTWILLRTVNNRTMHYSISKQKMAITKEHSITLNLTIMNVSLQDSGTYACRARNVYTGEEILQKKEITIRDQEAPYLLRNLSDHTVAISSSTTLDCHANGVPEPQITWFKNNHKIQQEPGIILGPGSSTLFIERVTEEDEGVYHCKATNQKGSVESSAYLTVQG
Put plainly: purified antibody; inhibition of 125I-VEGF binding to coated Flt-1 7N. As to the method:
(§1) Methanol was dispensed in 100 μl portions into wells of a 96 well MultiScreen-IP Plate (manufactured by Millipore) to give hydrophilic nature to the PVDF membrane on the bottom of the plate. After washing with water, the soluble human VEGF receptor Flt-1 7N diluted with PBS to a concentration of 1.6 μg/ml was dispensed in 50 μl/well portions and then allowed to stand overnight at 4° C. for its adsorption. After washing, PBS containing 1% bovine serum albumin (BSA) is dispensed in 50 μl/well portions and the reaction was carried out at room temperature for 1 hour to block the remained active groups. After washing with PBS, each hybridoma culture supernatant or a purified monoclonal antibody diluted with 1% BSA-PBS containing 0.5 M NaCl (0.01 to 7.29 μg/ml) was dispensed in 50 μl/well portions and then 3 ng/ml of ¹²⁵I-labeled human VEGF (manufactured by Amersham) was dispensed in 50 μl/well portions, subsequently carrying out the reaction at room temperature for 1.5 hours. After washing with 0 05% Tween-PBS, the wells were dried at 50° C., and Microscinti-0 (manufactured by Packard) was dispensed in 30 μl/well portions to measure the radioactivity of the ¹²⁵I-labeled human VEGF linked to each well using Top Count (manufactured by Packard).

In experiment [3] the target is T3, human VEGF receptor Flt-1 expressed on cells (human, UniProt P17948 27-1338).
T3 construct: whole, on cells; also called NIH3T3-Flt-1; human VEGF receptor Flt-1 expression cells
T3 sequence (P17948 27-1338): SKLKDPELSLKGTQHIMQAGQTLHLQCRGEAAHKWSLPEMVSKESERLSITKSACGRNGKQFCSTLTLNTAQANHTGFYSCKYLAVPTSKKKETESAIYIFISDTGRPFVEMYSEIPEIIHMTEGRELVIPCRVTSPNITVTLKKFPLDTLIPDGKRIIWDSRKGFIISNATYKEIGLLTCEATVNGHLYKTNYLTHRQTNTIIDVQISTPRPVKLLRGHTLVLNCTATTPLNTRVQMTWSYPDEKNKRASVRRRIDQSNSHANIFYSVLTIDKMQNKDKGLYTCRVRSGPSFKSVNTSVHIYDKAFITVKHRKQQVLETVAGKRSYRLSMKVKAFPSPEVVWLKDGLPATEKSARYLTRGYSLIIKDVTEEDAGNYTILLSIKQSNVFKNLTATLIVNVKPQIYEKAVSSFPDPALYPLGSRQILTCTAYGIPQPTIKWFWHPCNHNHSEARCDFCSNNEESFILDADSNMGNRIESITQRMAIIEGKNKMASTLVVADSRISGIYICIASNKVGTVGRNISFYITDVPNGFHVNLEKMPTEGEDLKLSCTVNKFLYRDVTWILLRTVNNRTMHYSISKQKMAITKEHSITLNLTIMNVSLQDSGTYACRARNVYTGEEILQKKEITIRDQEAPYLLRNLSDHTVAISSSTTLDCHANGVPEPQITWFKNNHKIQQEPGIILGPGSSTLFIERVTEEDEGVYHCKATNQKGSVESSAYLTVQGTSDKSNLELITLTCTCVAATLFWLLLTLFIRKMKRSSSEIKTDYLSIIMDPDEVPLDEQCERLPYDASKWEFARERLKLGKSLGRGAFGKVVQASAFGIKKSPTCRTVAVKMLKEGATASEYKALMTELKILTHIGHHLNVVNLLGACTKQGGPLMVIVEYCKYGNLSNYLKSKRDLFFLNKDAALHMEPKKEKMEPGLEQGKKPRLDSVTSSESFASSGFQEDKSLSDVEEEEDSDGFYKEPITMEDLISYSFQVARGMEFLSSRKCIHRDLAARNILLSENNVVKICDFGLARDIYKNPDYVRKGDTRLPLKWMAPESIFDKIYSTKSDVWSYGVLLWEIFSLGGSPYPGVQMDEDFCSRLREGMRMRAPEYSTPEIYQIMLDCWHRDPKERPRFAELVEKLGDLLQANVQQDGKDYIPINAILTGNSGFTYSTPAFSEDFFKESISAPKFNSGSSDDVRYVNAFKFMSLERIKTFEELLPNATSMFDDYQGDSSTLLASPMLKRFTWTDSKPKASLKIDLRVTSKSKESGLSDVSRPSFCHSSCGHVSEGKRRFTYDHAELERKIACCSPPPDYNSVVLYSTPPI
Kind of experiment: purified antibody; inhibition of 125I-VEGF binding to NIH3T3-Flt-1 cells. As to the method: PBS containing 1% bovine serum albumin (BSA) was dispensed in 100 μl portions into wells of a 96 well MultiScreen-HV Plate (manufactured by Millipore), the reaction was carried out at room temperature for 1 hour to block the active groups in the wells and then NIH3T3-Flt-1 cells suspended in 1% BSA-PBS containing 0.05% NaN₃ were dispensed in 5×10⁴ cells/well portions. After washing with 1% BSA-PBS, a purified monoclonal antibody (0.01 to 7.29 μg/ml) was dispensed in 50 μl/well portions and then 3 ng/ml of ¹²⁵I-labeled human VEGF (manufactured by Amersham) was dispensed in 50 μl/well portions and the reaction was carried out under cooling for 2 hours. After washing with PBS, the wells were dried at 50° C., and Microscinti-0 (manufactured by Packard) was dispensed in 30 μl/well portions to measure the radioactivity of the ¹²⁵I-labeled human VEGF linked to each well using Top Count (manufactured by Packard).

Experiment [4] deals with T2, soluble human VEGF receptor Flt-1 7N. Kind of experiment: hybridoma culture supernatant; inhibition of 125I-VEGF (3 ng/ml) binding to coated Flt-1 7N. As to the method: as §1
In experiment [5] the target is T1, soluble human VEGF receptor KDR 7N. Put plainly: enzyme immunoassay, antigen coated at 10 µg/ml. An excerpt:
Next, in order to examine binding specificity of anti-human VEGF receptor Flt-1 human CDR-grafted antibodies KM8550, KM8551, KM8552, KM8553, KM8554 and KM8555 and anti-human VEGF receptor Flt-1 human chimeric antibody KM2550, their reactivity for five soluble human VEGF receptor derivative proteins Flt-1 7N, Flt-1 3N, Flt-1 2N (WO 98/22616), Flt-1 7N.K2 [2(6-5) of Example 2] and KDR 7N [2(6-5) of Example 2] was examined using an enzyme immunoassay. Concentration of each soluble human VEGF receptor derivative protein to be adsorbed on a 96 well plate for EIA was fixed to 10 μg/ml (3-fold dilution), and the antibody concentration was fixed to 5 μg/ml.

T1 sequence (P35968 20-757): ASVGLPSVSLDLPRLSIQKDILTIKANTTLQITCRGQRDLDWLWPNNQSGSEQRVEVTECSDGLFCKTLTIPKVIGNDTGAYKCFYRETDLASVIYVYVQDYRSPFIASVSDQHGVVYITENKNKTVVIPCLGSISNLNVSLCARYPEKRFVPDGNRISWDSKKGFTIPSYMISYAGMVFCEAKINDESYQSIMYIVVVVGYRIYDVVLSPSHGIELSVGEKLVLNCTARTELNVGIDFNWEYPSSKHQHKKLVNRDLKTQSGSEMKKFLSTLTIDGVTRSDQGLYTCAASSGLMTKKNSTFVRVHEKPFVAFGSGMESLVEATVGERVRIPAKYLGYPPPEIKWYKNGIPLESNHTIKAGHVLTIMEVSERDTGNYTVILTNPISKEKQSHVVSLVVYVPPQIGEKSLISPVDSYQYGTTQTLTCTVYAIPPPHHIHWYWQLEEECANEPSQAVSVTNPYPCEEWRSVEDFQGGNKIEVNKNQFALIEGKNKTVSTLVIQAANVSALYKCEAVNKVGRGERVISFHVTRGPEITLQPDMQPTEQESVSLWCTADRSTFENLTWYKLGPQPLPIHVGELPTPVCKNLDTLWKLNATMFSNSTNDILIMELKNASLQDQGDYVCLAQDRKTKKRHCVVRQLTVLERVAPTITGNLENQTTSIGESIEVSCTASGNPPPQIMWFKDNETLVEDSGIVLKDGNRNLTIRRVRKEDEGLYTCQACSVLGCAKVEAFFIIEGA

B1: anti-human VEGF receptor Flt-1 mouse monoclonal antibody KM1750 (antibody, mouse IgG2b, V domains shown)
VH: QAFLQQSGAELVRPGASVKMSCKASGYTFINYNMHWVKQTPRQGLEWIGAIFPGNGFTSYNQKFKGKATLTVDKSSSTVYMQLRSLTSEDSAVYFCARDGDYYFDYWGQGTTLTVSS
VL: QIVLTQSPAIMSASLGEEITLTCSASSSVSYMHWYQQKSGTSPKLLIYRTSNLASGVPFRFSGSGSGTFYSLTISSVEAEDAADYYCHQWSMYTFGGGTKLEIK
notes: mouse IgG2b; hybridoma FERM BP-5700; Used labeled with biotin on HUVEC; also called biotinated KM1750
Regarding B1, the binding result in experiment [1] is “no binding (tested: 0.1 µg/ml antibody)”. The IC50 turned out to be 2 µg/mL in experiment [2] and 0.041 µg/mL in experiment [3]. The inhibition ratio in experiment [4] was determined as 66.3%.

B2: anti-human VEGF receptor Flt-1 human chimeric antibody KM2550 (antibody, V domains shown)
VH: QAFLQQSGAELVRPGASVKMSCKASGYTFINYNMHWVKQTPRQGLEWIGAIFPGNGFTSYNQKFKGKATLTVDKSSSTVYMQLRSLTSEDSAVYFCARDGDYYFDYWGQGTTLTVSS
VL: QIVLTQSPAIMSASLGEEITLTCSASSSVSYMHWYQQKSGTSPKLLIYRTSNLASGVPFRFSGSGSGTFYSLTISSVEAEDAADYYCHQWSMYTFGGGTKLEIK
notes: V regions of KM1750 joined to the human antibody C regions of vector pKANTEX93; IgG type; also called p42550 [sic]
On to B2, for which the binding result in experiment [1] is on record as “no binding (tested: 0.1 µg/ml antibody)”.

B3: anti-human VEGF receptor Flt-1 human CDR-grafted antibody KM8550 (antibody, V domains shown)
VH: QVQLVQSGAEVKKPGASVKVSCKASGYTFINYNMHWVRQAPGQGLEWMGAIFPGNGFTSYNQKFKGRVTITVDKSTSTAYMELSSLRSEDTAVYYCARDGDYYFDYWGQGTLVTVSS
VL: DIQMTQSPSSLSASVGDRVTITCSASSSVSYMHWYQQKPGKAPKLLIYRTSNLASGVPSRFSGSGSGTDFTLTISSLQPEDFATYYCHQWSMYTFGQGTKVEIK
notes: also called pKANTEX1750HV0LV0(I)
B3: in experiment [5], the binding result is “no binding (tested: 5 µg/ml antibody)”.

B4: anti-human VEGF receptor Flt-1 human CDR-grafted antibody KM8551 (antibody, V domains shown)
VH: QVQLVQSGAEVKKPGASVKVSCKASGYTFINYNMHWVRQAPGQGLEWMGAIFPGNGFTSYNQKFKGRVTITVDKSTSTAYMELSSLRSEDTAVYYCARDGDYYFDYWGQGTLVTVSS
VL: DIVMTQSPDSLAVSLGERATINCSASSSVSYMHWYQQKPGQPPKLLIYRTSNLASGVPDRFSGSGSGTDFTLTISSLQAEDVAVYYCHQWSMYTFGQGTKVEIK
notes: also called pKANTEX1750HV0LV0(IV)
As to B4, in experiment [5], the binding result is given as “no binding (tested: 5 µg/ml antibody)”.

B5: anti-human VEGF receptor Flt-1 human CDR-grafted antibody KM8554 (antibody, V domains shown)
VH: QVQLVQSGAEVKKPGASVKVSCKASGYTFINYNMHWVRQAPGQGLEWMGAIFPGNGFTSYNQKFKGRVTITVDKSTSTAYMELSSLRSEDTAVYYCARDGDYYFDYWGQGTLVTVSS
VL: DIQMTQSPSSLSASVGEEVTITCSASSSVSYMHWYQQKPGKAPKLLIYRTSNLASGVPSRFSGSGSGTFYTLTISSLQPEDFATYYCHQWSMYTFGQGTKVEIK
notes: also called pKANTEX1750HV0LV4
In the case of B5, the binding result in experiment [5] is on record as “no binding (tested: 5 µg/ml antibody)”.

B6: anti-human VEGF receptor Flt-1 human CDR-grafted antibody KM8555 (antibody, V domains shown)
VH: QVQLVQSGAEVKKPGASVKVSCKASGYTFINYNMHWVRQAPGQGLEWMGAIFPGNGFTSYNQKFKGRVTITVDKSTSTAYMQLRSLRSEDTAVYFCARDGDYYFDYWGQGTLVTVSS
VL: DIQMTQSPSSLSASVGEEVTITCSASSSVSYMHWYQQKPGKAPKLLIYRTSNLASGVPSRFSGSGSGTFYTLTISSLQPEDFATYYCHQWSMYTFGQGTKVEIK
notes: also called pKANTEX1750HV3LV4
B6: in experiment [5], the binding result was “no binding (tested: 5 µg/ml antibody)”.

B7: anti-human VEGF receptor Flt-1 human CDR-grafted antibody KM8552 (antibody, V domains shown)
VH: QVQLVQSGAEVKKPGASVKVSCKASGYTFINYNMHWVRQAPGQGLEWMGAIFPGNGFTSYNQKFKGRVTITVDKSTSTAYMQLRSLRSEDTAVYFCARDGDYYFDYWGQGTLVTVSS
VL: DIQMTQSPSSLSASVGDRVTITCSASSSVSYMHWYQQKPGKAPKLLIYRTSNLASGVPSRFSGSGSGTDFTLTISSLQPEDFATYYCHQWSMYTFGQGTKVEIK
notes: also called pKANTEX1750HV3LV0(I)
On to B7, for which, in experiment [5], the binding result is given as “no binding (tested: 5 µg/ml antibody)”.

B8: anti-human VEGF receptor Flt-1 human CDR-grafted antibody KM8553 (antibody, V domains shown)
VH: QVQLVQSGAEVKKPGASVKVSCKASGYTFINYNMHWVRQAPGQGLEWMGAIFPGNGFTSYNQKFKGRVTITVDKSTSTAYMQLRSLRSEDTAVYFCARDGDYYFDYWGQGTLVTVSS
VL: DIVMTQSPDSLAVSLGERATINCSASSSVSYMHWYQQKPGQPPKLLIYRTSNLASGVPDRFSGSGSGTDFTLTISSLQAEDVAVYYCHQWSMYTFGQGTKVEIK
notes: also called pKANTEX1750HV3LV0(IV)
Turning to B8, in experiment [5], the binding result was “no binding (tested: 5 µg/ml antibody)”.

B9: anti-human VEGF receptor Flt-1 mouse monoclonal antibody KM1732 (antibody, mouse IgG1, V domains shown)
VH: QGQMQQSGAELVKPGASVKLSCKPSGFTFSSNYISWLKQKPGQSLEWIAWIYAGTGDASYNQKFTAKAHVTVDTSSSTAYMQLSSLTTEDSAIYYCARHGGDGYWFAYWGQGTLVTVSA
VL: QLVLTQSPAIMSASQGEKVTMTCSASSSVSYMHWYQQKSGTSPKRWIYDTSKLPSGVPARFSGSGSGTSYSLTISSMEAEDAATYYCQQWSSNPPTFGAGTKLELK
notes: mouse IgG1; hybridoma FERM BP-5698
For B9, the binding result in experiment [1] was “no binding (tested: 0.1 µg/ml antibody)”. Besides, the IC50 turned out to be 1.1 µg/mL in experiment [2] and 0.05 µg/mL in experiment [3]. Further, in experiment [4], the inhibition ratio was determined as 83.1%.

B10: anti-human VEGF receptor Flt-1 human chimeric antibody KM2532 (antibody, V domains shown)
VH: QGQMQQSGAELVKPGASVKLSCKPSGFTFSSNYISWLKQKPGQSLEWIAWIYAGTGDASYNQKFTAKAHVTVDTSSSTAYMQLSSLTTEDSAIYYCARHGGDGYWFAYWGQGTLVTVSA
VL: QLVLTQSPAIMSASQGEKVTMTCSASSSVSYMHWYQQKSGTSPKRWIYDTSKLPSGVPARFSGSGSGTSYSLTISSMEAEDAATYYCQQWSSNPPTFGAGTKLELK
notes: V regions of KM1732 joined to the human antibody C regions of vector pKANTEX93 (WO 97/10354); IgG type of about 150 kDa; Expressed in YB2/0 cells; also called p42532 [sic]
For B10, the binding result in experiment [1] is “no binding (tested: 0.1 µg/ml antibody)”.
